Measurements: US20250295734A1, “ANTICOAGULANT PROTEINS AND THEIR USE FOR TREATING DISEASES ASSOCIATED WITH THE ACTIVATION OF NEUTROPHILS” (BIOXODES, priority 2018, published 2025)

Experiments:
[1] = test system: platelet accumulation and fibrin generation in Panc02 tumor-bearing mice; experiment: Laser injury in pancreatic cancer-bearing mice (cancer-associated thrombosis model); format: in vivo, mice (C57BL/6JRj); conditions: for fibrin generation compared to NaCl cancer mice / platelet accumulation compared to NaCl cancer mice: tumor-bearing mice
Method: Murine Panc02 cells (mouse pancreatic ductal adenocarcinoma cell line) were cultured to a 80% confluence in RPMI-1640 medium (Life Technologies) supplemented with 10% FCS (PAA), 1000 U/mL penicillin (Life Technologies), 100 μg/mL streptomycin (Life Technologies) and 0.1% fungizone (Life Technologies) at 37° C. in a humidified atmosphere with 5% CO2. Once in the exponential growth phase, cells were washed three times with PBS and briefly exposed to non-enzymatic cell dissociation buffer (Life
Technologies) to dislodge the cells. The cells were carefully washed three times, resuspended in PBS, and diluted to the desired concentration.
Five-week-old C57BL/6 mice were injected subcutaneously in the right flank with a tumor cell suspension (10^6 cells in 100 μL of PBS). When the tumor became palpable (0.2 cm), measurements in two dimensions were performed with a caliper, and the volume of each tumor was calculated according to the formula for the volume of an ellipsoid: π/6×a(b)^2, where a is the largest diameter and b the smallest diameter of the tumor.
Intravital video-microscopy of the cremaster muscle microcirculation was done as previously described (Falati et al., 2002) and as described hereinabove (see Example 1).
Vessel wall injury was induced with a Micropoint Laser System (Photonics Instruments) as described hereinabove (see Example 1).
Platelet and fibrin accumulation after injury were monitored and detected as indicated hereinabove (see Example 1).
Tumor-bearing mice were attributed to the Ir-CPI-treated group (Ir-CPI cancer) or to the control group (NaCl cancer). Moreover, cancer-free mice treated with NaCl (NaCl cancer-free) were also used as negative control. All mice were submitted to laser injuries in arterioles of the cremaster muscle to trigger thrombosis. Ir-CPI treated mice received either a low or a high dose of the investigative product.
Platelet accumulation and fibrin generation on the injured vessel walls were monitored using the following fluorescently labeled antibodies: DyLight649-labeled anti-GPIb antibody and Alexa Fluor 488-conjugated anti-fibrin antibody, respectively.

[2] = target: Factor Xa (Homo sapiens, UniProt P00742); conditions: cited from earlier work
[3] = test system: intrinsic pathway; conditions: in vitro; dose-dependent; cited from earlier work
[4] = Distribution and elimination of Ir-CPI in the mice; format: in vivo
Method: (§1) Ir-CPI was administered intravenously as a bolus (20.5 mg/kg) immediately followed by a continuous infusion at a rate of 3.7 mg/kg/h (see Table 1 below). Due to fast distribution and elimination of Ir-CPI in the mice (t1/2α=14 min and t1/2β=236 min), the combination of the bolus and the infusion was chosen in order to maintain a constant Ir-CPI concentration into the blood.

[5] = target: FXIa (Homo sapiens, UniProt P03951); conditions: cited from earlier work
[6] = test system: thrombin generation induced by TF (extrinsic pathway activator); conditions: induced by low concentration of TF (5 pM); cited from earlier work
[7] = test system: thrombin generation induced by ellagic acid (intrinsic pathway activator); conditions: cited from earlier work
[8] = test system: human neutrophils; experiment: Apoptosis/necrosis assay (Annexin V / Propidium Iodide); format: cell-based; conditions: recombinant Ir-CPI 15.3 μg/mL (2 μM); 1 h incubation; 4 donors
Method: The effect of recombinant Ir-CPI on apoptosis/necrosis of human neutrophils was assessed. For this purpose, freshly isolated neutrophils from 4 donors were pre-treated for 1 h with recombinant Ir-CPI at 15.3 μg/mL and then incubated with Annexin V-FITC, with Propidium Iodide (PI) and with anti-human CD66b-PE antibody for cell identification. As negative control, neutrophils were only incubated with Annexin V-PI and CD66b for cell identification.
Polymorphonuclear neutrophils (PMNs) were isolated with StraightFrom® Whole Blood CD15 MicroBeads kits from Miltenyi Biotech. Briefly, after erythrocytes lysis, the blood cells were incubated in the presence of CD15 microbeads. Blood cells were washed with separation buffer and centrifuged at 300 g for 10 min at room temperature. The pellets containing magnetically labeled cells were resuspended in separation buffer and applied to the equilibrated whole blood column placed on the QuadroMACS. After extensive washing, the column was removed from the magnetic separator, and labeled cells were eluted using whole blood elution buffer. Finally, the PMNs were centrifuged at 300 g for 10 min and resuspended in Hank's buffer with calcium and magnesium. […]
Apoptosis was detected by initially staining the cells with Annexin V and Propidium Iodide solution followed by flow cytometry analysis. […]

[9] = test system: polymorphonuclear neutrophils (PMNs); experiment: Laser-induced vessel wall injury: PMN accumulation (anti-Ly6G); format: in vivo, mice (C57BL/6JRj); conditions: iv bolus 20.5 mg/kg + infusion 3.7 mg/kg/h
Method: as §1
Vessel wall injury was induced with a Micropoint Laser System (Photonics Instruments) focused through the microscope objective, parfocal with the focal plane and aimed at the vessel wall, as previously described (Dubois et al., 2006). Typically, 1 or 2 pulses were required to induce vessel wall injury.
Multiple thrombi were studied in a single mouse, with new thrombi formed upstream of earlier thrombi to avoid any contribution from thrombi generated earlier in the animal under study. Laser-beam injuries were done at various time after the start of test-item administration (+5 min up to about 150 min after bolus administration of Ir-CPI or NaCl (control)).
Image analysis was performed using Slidebook 4.1 (Intelligent Imaging Innovations). Fluorescence data were captured digitally at up to 50 frames per second and analyzed as previously described (Falati et al., 2002). The kinetics of thrombus formation were analyzed by determining median fluorescence values over time in a minimum number of 20 thrombi.
Detection of PMNs in vivo was performed using PE-labelled anti-Ly6G antibody.
To determine whether Ir-CPI has an impact on the accumulation of PMNs at the site of injury, the accumulation of PMNs on the injured vessel wall was monitored using a PE-fluorescently labeled antibody directed against Ly6G (FIG. 5).

[10] = High dose: 20.5 mg/kg bolus + 3.7 mg/kg/h
[11] = Low dose: 10.3 mg/kg bolus + 1.9 mg/kg/h

Chain of FXIa (P03951 19-387 limits assumed): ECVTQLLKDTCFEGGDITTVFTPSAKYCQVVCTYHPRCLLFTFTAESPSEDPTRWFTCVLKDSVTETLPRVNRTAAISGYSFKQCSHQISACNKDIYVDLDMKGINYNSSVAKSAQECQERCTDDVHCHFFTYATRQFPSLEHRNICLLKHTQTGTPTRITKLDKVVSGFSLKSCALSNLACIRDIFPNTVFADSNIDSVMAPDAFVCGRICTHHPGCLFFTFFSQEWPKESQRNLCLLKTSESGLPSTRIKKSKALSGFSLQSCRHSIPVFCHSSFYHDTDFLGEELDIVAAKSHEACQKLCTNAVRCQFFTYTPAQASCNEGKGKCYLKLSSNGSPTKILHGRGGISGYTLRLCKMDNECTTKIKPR
Chain of FXIa (P03951 388-625 limits assumed): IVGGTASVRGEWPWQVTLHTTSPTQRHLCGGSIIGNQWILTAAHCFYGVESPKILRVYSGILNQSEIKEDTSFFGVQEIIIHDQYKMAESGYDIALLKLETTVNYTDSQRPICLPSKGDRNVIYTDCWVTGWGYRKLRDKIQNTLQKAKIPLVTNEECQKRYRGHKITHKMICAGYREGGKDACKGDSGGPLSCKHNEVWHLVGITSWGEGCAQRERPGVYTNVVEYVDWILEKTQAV
Chain of Factor Xa (P00742 41-179 limits assumed): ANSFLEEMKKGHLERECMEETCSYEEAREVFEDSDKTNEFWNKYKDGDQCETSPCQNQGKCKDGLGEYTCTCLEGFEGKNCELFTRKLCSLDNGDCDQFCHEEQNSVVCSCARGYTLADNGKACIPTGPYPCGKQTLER
Chain of Factor Xa (P00742 235-488 limits assumed): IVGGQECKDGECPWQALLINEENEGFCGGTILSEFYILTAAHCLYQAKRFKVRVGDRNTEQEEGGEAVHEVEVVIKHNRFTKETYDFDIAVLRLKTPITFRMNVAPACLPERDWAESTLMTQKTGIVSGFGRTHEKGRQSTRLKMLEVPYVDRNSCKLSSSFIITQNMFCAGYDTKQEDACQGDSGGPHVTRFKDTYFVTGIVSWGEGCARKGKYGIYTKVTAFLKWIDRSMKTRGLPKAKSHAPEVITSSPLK

B1: Ir-CPI: Ixodes ricinus salivary gland polypeptide, contact phase inhibitor, MW=7660 Da; sequence SEQ ID NO: 1 or SEQ ID NO: 2 (protein)
chain: ANHKGRGRPAKCKLPPDDGPCRARIPSYYFDRKTKTCKEFMYGGCEGNENNFENITTCQEECRAKKV
fibrin generation compared to NaCl cancer mice [1, 10]: significant decrease | platelet accumulation compared to NaCl cancer mice [1, 10]: significant decrease | integrated fluorescence intensity of platelet labeling (area under curve) ([1]; High dose, vs NaCl cancer-free mice (*p<0.05) and NaCl cancer mice (***p<0.001)): significantly lower | fibrin generation compared to NaCl cancer mice [1, 11]: significant decrease | platelet accumulation compared to NaCl cancer mice [1, 11]: significant decrease | activity on Factor Xa [2]: totally inactive | activated Partial Thromboplastin Time (aPTT) [3]: prolong | t1/2α [4]: 0.233 h | t1/2β [4]: 3.93 h | binding to FXIa [5]: binds | thrombin generation [6]: quite inactive | thrombin generation [7]: strong dose-dependent reduction | induction of apoptosis [8]: did not induce apoptosis | mean necrotic, dead, apoptotic, and live cells vs negative control [8]: no statistical difference | maximal median of integrated PMN fluorescence (anti-Ly6G) ([9]; at T 261 sec): 3.02×10^6 AU | median of integrated PMN fluorescence ([9]; at T 270 sec (end of measurement)): 2.78×10^6 AU | PMN accumulation compared to control mice ([9]; first 4.5 min after laser injury): drastically decreased
